Square brackets hold non-standard residues; d marks the D form. Ends that are not written are not given here. * marks the point of attachment. Cholesteryloxycarbonyl = CC(C)CCC[C@@H](C)[C@H]1CC[C@H]2[C@@H]3CC=C4C[C@@H](OC(=O)*)CC[C@]4(C)[C@H]3CC[C@]12C; Myristoyl = CCCCCCCCCCCCCC(=O)*; hLeu = CC(C)CC[C@H](N)C(=O)O; Orn = NCCC[C@H](N)C(=O)O; Nva = CCC[C@H](N)C(=O)O; Dap = NC[C@H](N)C(=O)O
B1: PTR 6196 (peptide)
peptide: Cholesteryloxycarbonyl-RPR[Nva]YA[hLeu]-NH2
SMILES: CCC[C@H](NC(=O)[C@H](CCCNC(=N)N)NC(=O)[C@@H]1CCCN1C(=O)[C@H](CCCNC(=N)N)NC(=O)O[C@H]1CC[C@@]2(C)C(=CC[C@H]3[C@@H]4CC[C@H]([C@H](C)CCCC(C)C)[C@@]4(C)CC[C@@H]32)C1)C(=O)N[C@@H](Cc1ccc(O)cc1)C(=O)N[C@@H](C)C(=O)N[C@@H](CCC(C)C)C(N)=O
B2: PTR 6164 (peptide)
peptide: Cholesteryloxycarbonyl-RPR[Nva]Y[Dap][hLeu]-NH2
SMILES: CCC[C@H](NC(=O)[C@H](CCCNC(=N)N)NC(=O)[C@@H]1CCCN1C(=O)[C@H](CCCNC(=N)N)NC(=O)O[C@H]1CC[C@@]2(C)C(=CC[C@H]3[C@@H]4CC[C@H]([C@H](C)CCCC(C)C)[C@@]4(C)CC[C@@H]32)C1)C(=O)N[C@@H](Cc1ccc(O)cc1)C(=O)N[C@@H](CN)C(=O)N[C@@H](CCC(C)C)C(N)=O
B3: MPS ab60025-50 (peptide)
peptide: [dK][dK][dK][dK][dK][dK][dK][dK][dK][dK]RPR[Nva]Y[Dap][hLeu]-NH2
modifications: N-terminus assumed
SMILES: CCC[C@H](NC(=O)[C@H](CCCNC(=N)N)NC(=O)[C@@H]1CCCN1C(=O)[C@H](CCCNC(=N)N)NC(=O)[C@@H](CCCCN)NC(=O)[C@@H](CCCCN)NC(=O)[C@@H](CCCCN)NC(=O)[C@@H](CCCCN)NC(=O)[C@@H](CCCCN)NC(=O)[C@@H](CCCCN)NC(=O)[C@@H](CCCCN)NC(=O)[C@@H](CCCCN)NC(=O)[C@@H](CCCCN)NC(=O)[C@H](N)CCCCN)C(=O)N[C@@H](Cc1ccc(O)cc1)C(=O)N[C@@H](CN)C(=O)N[C@@H](CCC(C)C)C(N)=O
B4: MPS ab60025-82 (peptide)
peptide: [dK][dK][dK][dK][dK][dK][dK][dK]RPR[Nva]Y[Dap][hLeu]-NH2
modifications: N-terminus assumed
SMILES: CCC[C@H](NC(=O)[C@H](CCCNC(=N)N)NC(=O)[C@@H]1CCCN1C(=O)[C@H](CCCNC(=N)N)NC(=O)[C@@H](CCCCN)NC(=O)[C@@H](CCCCN)NC(=O)[C@@H](CCCCN)NC(=O)[C@@H](CCCCN)NC(=O)[C@@H](CCCCN)NC(=O)[C@@H](CCCCN)NC(=O)[C@@H](CCCCN)NC(=O)[C@H](N)CCCCN)C(=O)N[C@@H](Cc1ccc(O)cc1)C(=O)N[C@@H](CN)C(=O)N[C@@H](CCC(C)C)C(N)=O
B5: PTR 6184 (peptide)
peptide: RPR[Nva]YA[hLeu]-NH2
modifications: N-terminus assumed
SMILES: CCC[C@H](NC(=O)[C@H](CCCNC(=N)N)NC(=O)[C@@H]1CCCN1C(=O)[C@@H](N)CCCNC(=N)N)C(=O)N[C@@H](Cc1ccc(O)cc1)C(=O)N[C@@H](C)C(=O)N[C@@H](CCC(C)C)C(N)=O
B6: PTR 6316 (peptide)
peptide: RQIKIWFQNRRMKWKKRPR[Nva]Y[Dap][hLeu]K(Cholesteryloxycarbonyl)-NH2
modifications: N-terminus assumed
SMILES: CCC[C@H](NC(=O)[C@H](CCCNC(=N)N)NC(=O)[C@@H]1CCCN1C(=O)[C@H](CCCNC(=N)N)NC(=O)[C@H](CCCCN)NC(=O)[C@H](CCCCN)NC(=O)[C@H](Cc1c[nH]c2ccccc12)NC(=O)[C@H](CCCCN)NC(=O)[C@H](CCSC)NC(=O)[C@H](CCCNC(=N)N)NC(=O)[C@H](CCCNC(=N)N)NC(=O)[C@H](CC(N)=O)NC(=O)[C@H](CCC(N)=O)NC(=O)[C@H](Cc1ccccc1)NC(=O)[C@H](Cc1c[nH]c2ccccc12)NC(=O)[C@@H](NC(=O)[C@H](CCCCN)NC(=O)[C@@H](NC(=O)[C@H](CCC(N)=O)NC(=O)[C@@H](N)CCCNC(=N)N)[C@@H](C)CC)[C@@H](C)CC)C(=O)N[C@@H](Cc1ccc(O)cc1)C(=O)N[C@@H](CN)C(=O)N[C@@H](CCC(C)C)C(=O)N[C@@H](CCCCNC(=O)O[C@H]1CC[C@@]2(C)C(=CC[C@H]3[C@@H]4CC[C@H]([C@H](C)CCCC(C)C)[C@@]4(C)CC[C@@H]32)C1)C(N)=O
B7: PTR 6252 (peptide)
peptide: [dR][dR][dR][dR][dR][dR][dR][dR][dR]GRPR[Nva]YA[hLeu]-NH2
modifications: N-terminus assumed
SMILES: CCC[C@H](NC(=O)[C@H](CCCNC(=N)N)NC(=O)[C@@H]1CCCN1C(=O)[C@H](CCCNC(=N)N)NC(=O)CNC(=O)[C@@H](CCCNC(=N)N)NC(=O)[C@@H](CCCNC(=N)N)NC(=O)[C@@H](CCCNC(=N)N)NC(=O)[C@@H](CCCNC(=N)N)NC(=O)[C@@H](CCCNC(=N)N)NC(=O)[C@@H](CCCNC(=N)N)NC(=O)[C@@H](CCCNC(=N)N)NC(=O)[C@@H](CCCNC(=N)N)NC(=O)[C@H](N)CCCNC(=N)N)C(=O)N[C@@H](Cc1ccc(O)cc1)C(=O)N[C@@H](C)C(=O)N[C@@H](CCC(C)C)C(N)=O
B8: MPS ab60025-94 (peptide)
peptide: [dR][dR][dR][dR][dR][dR][dR]RPR[Nva]Y[Dap][hLeu]-NH2
modifications: N-terminus assumed
SMILES: CCC[C@H](NC(=O)[C@H](CCCNC(=N)N)NC(=O)[C@@H]1CCCN1C(=O)[C@H](CCCNC(=N)N)NC(=O)[C@@H](CCCNC(=N)N)NC(=O)[C@@H](CCCNC(=N)N)NC(=O)[C@@H](CCCNC(=N)N)NC(=O)[C@@H](CCCNC(=N)N)NC(=O)[C@@H](CCCNC(=N)N)NC(=O)[C@@H](CCCNC(=N)N)NC(=O)[C@H](N)CCCNC(=N)N)C(=O)N[C@@H](Cc1ccc(O)cc1)C(=O)N[C@@H](CN)C(=O)N[C@@H](CCC(C)C)C(N)=O
B9: PTR 6154 (peptide)
peptide: RPR[Nva]Y[Dap][hLeu]-NH2
modifications: N-terminus assumed
SMILES: CCC[C@H](NC(=O)[C@H](CCCNC(=N)N)NC(=O)[C@@H]1CCCN1C(=O)[C@@H](N)CCCNC(=N)N)C(=O)N[C@@H](Cc1ccc(O)cc1)C(=O)N[C@@H](CN)C(=O)N[C@@H](CCC(C)C)C(N)=O
B10: PTR 6180 (peptide)
peptide: Myristoyl-GRPR[Nva]Y[Dap][hLeu]-NH2
SMILES: CCCCCCCCCCCCCC(=O)NCC(=O)N[C@@H](CCCNC(=N)N)C(=O)N1CCC[C@H]1C(=O)N[C@@H](CCCNC(=N)N)C(=O)N[C@@H](CCC)C(=O)N[C@@H](Cc1ccc(O)cc1)C(=O)N[C@@H](CN)C(=O)N[C@@H](CCC(C)C)C(N)=O
B11: MPS ab60025-49 (peptide)
peptide: RPR[Nva]Y[Dap][hLeu][dK][dK][dK][dK][dK][dK][dK][dK][dK][dK]-NH2
modifications: N-terminus assumed
SMILES: CCC[C@H](NC(=O)[C@H](CCCNC(=N)N)NC(=O)[C@@H]1CCCN1C(=O)[C@@H](N)CCCNC(=N)N)C(=O)N[C@@H](Cc1ccc(O)cc1)C(=O)N[C@@H](CN)C(=O)N[C@@H](CCC(C)C)C(=O)N[C@H](CCCCN)C(=O)N[C@H](CCCCN)C(=O)N[C@H](CCCCN)C(=O)N[C@H](CCCCN)C(=O)N[C@H](CCCCN)C(=O)N[C@H](CCCCN)C(=O)N[C@H](CCCCN)C(=O)N[C@H](CCCCN)C(=O)N[C@H](CCCCN)C(=O)N[C@H](CCCCN)C(N)=O
B12: PTR 6198 (peptide)
peptide: Cholesteryloxycarbonyl-GRPR[Nva]YA[hLeu]-NH2
SMILES: CCC[C@H](NC(=O)[C@H](CCCNC(=N)N)NC(=O)[C@@H]1CCCN1C(=O)[C@H](CCCNC(=N)N)NC(=O)CNC(=O)O[C@H]1CC[C@@]2(C)C(=CC[C@H]3[C@@H]4CC[C@H]([C@H](C)CCCC(C)C)[C@@]4(C)CC[C@@H]32)C1)C(=O)N[C@@H](Cc1ccc(O)cc1)C(=O)N[C@@H](C)C(=O)N[C@@H](CCC(C)C)C(N)=O

Columns and labels:
Assay in all cases: cell-based or functional assay
protein kinase B (PKB) [1] = molecular target: protein kinase B (PKB)
protein kinase A (PKA) [2] = molecular target: protein kinase A (PKA)
protein kinase B (PKB) [3] = molecular target: protein kinase B (PKB); remark: listed apart in the source
protein kinase A (PKA) [4] = molecular target: protein kinase A (PKA); remark: listed apart in the source
protein kinase B (PKB) [5] = molecular target: protein kinase B (PKB); remark: listed apart in the source
protein kinase B (PKB) [6] = molecular target: protein kinase B (PKB); remark: listed apart in the source
protein kinase A (PKA) [7] = molecular target: protein kinase A (PKA); remark: listed apart in the source
protein kinase B (PKB) [8] = molecular target: protein kinase B (PKB); remark: listed apart in the source

Row | Binder | IC50, kinase assay PKB (protein kinase B (PKB) [1]) [nM] | IC50, kinase assay PKA (protein kinase A (PKA) [2]) [nM] | % Inhibition of PKB activity at 1 µM (protein kinase B (PKB) [5]) [%] | % Inhibition of PKB activity at 10 µM (protein kinase B (PKB) [5]) [%] | IC50, in vitro PKB inhibition (protein kinase B (PKB) [6]) [nM] | other results
1 | B1 | 500 | 5000 |  |  |  | 
2 | RPR[Orn]E(NH‑(CH2)2‑NH‑SO2‑Isoquinoline)SF [PTR 6132] |  |  |  |  |  | IC50, PKB kinase inhibition (protein kinase B (PKB) [3]): 20 nM; IC50, PKA kinase inhibition (protein kinase A (PKA) [4]): 12 nM
3 | B2 | 700 | 10000 |  |  |  | 
4 | B3 |  |  | 93 | 98 | 80 | 
5 | {Vitamin E succinate}-RPR[Nva]Y[Dap][hLeu]-NH2 [PTR 6244] | 3000 | 10000 |  |  |  | 
6 | Cholesteryloxycarbonyl-RPR[Orn]E(aminopropylmercaptoisoquinoline)SF-NH2 [PTR 6300] |  |  |  |  |  | IC50, in vitro kinase assay PKA (protein kinase A (PKA) [7]): 300 nM
7 | RQIKIWFQNRRMKWKKRPRXYXX (Nva, Dap, Hol of the 6154 part) [MPS ab60025-2] |  |  | 60 | 92 | 1000 | 
8 | B4 |  |  | 78 | 92 | 400 | 
9 | B5 |  |  |  |  |  | IC50, PKB kinase inhibition (protein kinase B (PKB) [3]): 300 nM; IC50, PKA kinase inhibition (protein kinase A (PKA) [4]): > 50000 nM
10 | B6 |  |  |  |  |  | IC50, in vitro kinase assay PKB (protein kinase B (PKB) [8]): 100 nM; IC50, in vitro kinase assay PKA (protein kinase A (PKA) [7]): 5000 nM
11 | B7 | 800 | 10000 | 65 | 93 | 800 | 
12 | B8 |  |  | 76 | 92 | 400 | 
13 | B9 |  |  |  |  |  | IC50, PKB kinase inhibition (protein kinase B (PKB) [3]): 900 nM; IC50, PKA kinase inhibition (protein kinase A (PKA) [4]): > 50000 nM
14 | B10 | 900 | 20000 |  |  |  | 
15 | Cholesteryloxycarbonyl-RPR[Orn]E(Aminoethylsulfonamidoisoquinoline)SF-NH2 [PTR 6260] | 1000 | > 5000 |  |  |  | 
16 | B11 |  |  | 97 | 99 | 40 | 
17 | B12 | 500 | 5000 |  |  |  | 

— patent US20070078092A1 (CUREGENICS, published 2007)
